Results as given in US20260248932A1, “CATIONIC AMPHIPHILIC POLYPEPTIDE FOR DELIVERING RNA AND METHOD FOR PREPARING THE SAME” (INHA UNIVERSITY RESEARCH AND BUSINESS FOUNDATION, priority 2023, published 2026).

Assay: Critical association concentration (CAC) by static light scattering
Format: physicochemical
Conditions: 10 mM HEPES buffer (pH 7.3), 0.001~4 mg/ml
Experimental: For the light scattered intensity of the polypeptide, the static light scattering was measured at 25° C. and a detection angle of 173° using Zetasizer Pro (Malvern Panalytical, Worcestershire, UK) equipped with a He—Ne laser (2=633 nm). Samples in 10 mM HEPES buffer (pH 7.3) were analyzed using a low-volume quartz cuvette (ZEN2112, Malvern Panalytic).
The critical association concentration (hereinafter referred to as CAC) of peptides measured by static light scattering was analyzed. […] Homopolypeptide (DDDDDDDD) used as the control group was well dissolved in buffer (pH 7.3), but no CAC appeared up to treatment concentration of 4 mg/mL.

## DDDDDDDD [octameric homopolypeptide of L-Asp(DET) units used as the control group]
  critical association concentration (CAC): > 4 mg/mL
